{"source": "patent US20240010735A1", "about": "(EISAI R AND D MANAGEMENT, published 2024)", "binders": {"B1": {"name": "mouse anti-EphA4 monoclonal antibody (antibody A) (antibody, mouse IgG1, kappa, V domains shown)", "VH": "QVQLKQSGPSLVQPSQSLSITCTVSGFSLTRYGVHWVRQSPGKGLEWLGVIWRGGSTDYNAAFMSRLSITKDNSKSQVFFKMNSLQADDTAIYYCAKESLFGVYYDYGYYSMDYWGQGTSVTVSS", "VL": "DIQMTQSPSSLSASLGERVSLTCRASQEISGYLSWLQQKPDGTIKRLIYAASTLDSGVPKRFSGSRSGSDYSLTISSLESEDFADYYCLQYASYPLTFGAGTKLELKR", "notes": "purified from hybridoma supernatant"}}, "key": {"[1]": {"target": "T1, mouse EphA1 extracellular region-Fc-His protein (mouse; human, UniProt Q60750 27-548)", "T1 construct": "extracellular domain; not shown: Fc region of human IgG1; histidine tag", "T1 sequence (looked up)": "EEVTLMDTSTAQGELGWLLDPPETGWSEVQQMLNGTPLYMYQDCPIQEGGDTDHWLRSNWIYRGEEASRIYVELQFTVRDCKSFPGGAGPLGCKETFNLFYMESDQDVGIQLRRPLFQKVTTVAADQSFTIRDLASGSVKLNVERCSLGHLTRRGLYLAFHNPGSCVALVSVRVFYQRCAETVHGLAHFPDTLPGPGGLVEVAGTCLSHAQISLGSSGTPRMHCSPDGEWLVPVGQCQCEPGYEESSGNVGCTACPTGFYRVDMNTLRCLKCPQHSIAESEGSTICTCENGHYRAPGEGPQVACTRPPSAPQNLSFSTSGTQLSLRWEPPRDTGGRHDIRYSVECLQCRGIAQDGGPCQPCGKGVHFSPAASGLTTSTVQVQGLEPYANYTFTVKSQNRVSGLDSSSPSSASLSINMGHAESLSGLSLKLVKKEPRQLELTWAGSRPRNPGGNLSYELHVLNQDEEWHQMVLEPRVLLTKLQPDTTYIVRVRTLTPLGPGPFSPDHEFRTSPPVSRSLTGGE", "assay": "ELISA: Fc-His proteins (1 nM) captured on anti-6-His antibody, antibody A 10 µg/mL with human IgG 100 µg/mL, HRP anti-mouse IgG, OD450 as % of mouse EphA4-Fc-His", "protocol": "(§1) Rabbit anti-6-His antibodies (Bethyl Laboratories) were coated onto the wells of a 96-well plate (Nunc). After incubating at 4° C. overnight, the wells were blocked at room temperature for 1 hour by 1% Block Ace (DS Pharma Biomedical). After washing 3 times with 0.05% Tween 20/PBS (Thermo […]), each Eph receptor of mouse extracellular region-Fc-His protein (final concentration 1 nM) was seeded into each well, and incubated at room temperature for 1 hour. After washing 3 times, human IgG solution (100 μg/mL, Sigma) and antibody A (10 μg/mL) were supplemented to the wells, and incubated at room temperature for 1 hour. Horseradish peroxidase-labeled donkey anti-mouse IgG antibody (Jackson ImmunoResearch Laboratories) was added, and incubated at room temperature for 1 hour. After washing 3 times, TMBZ (3,3′,5,5′-tetramethylbenzidine, Sigma) solution was added to the wells, and upon confirmation of modest coloring, an equal amount of quenching solution (1 N H₂SO₄, Wako Pure Chemicals) was added to the wells, and absorbance at 450 nm was read by a microplate reader (PerkinElmer)."}, "[2]": {"target": "T2, mouse EphA7 extracellular region-Fc-His protein (mouse; human, UniProt Q61772 28-555)", "T2 construct": "extracellular domain; not shown: Fc region of human IgG1; histidine tag", "T2 sequence (looked up)": "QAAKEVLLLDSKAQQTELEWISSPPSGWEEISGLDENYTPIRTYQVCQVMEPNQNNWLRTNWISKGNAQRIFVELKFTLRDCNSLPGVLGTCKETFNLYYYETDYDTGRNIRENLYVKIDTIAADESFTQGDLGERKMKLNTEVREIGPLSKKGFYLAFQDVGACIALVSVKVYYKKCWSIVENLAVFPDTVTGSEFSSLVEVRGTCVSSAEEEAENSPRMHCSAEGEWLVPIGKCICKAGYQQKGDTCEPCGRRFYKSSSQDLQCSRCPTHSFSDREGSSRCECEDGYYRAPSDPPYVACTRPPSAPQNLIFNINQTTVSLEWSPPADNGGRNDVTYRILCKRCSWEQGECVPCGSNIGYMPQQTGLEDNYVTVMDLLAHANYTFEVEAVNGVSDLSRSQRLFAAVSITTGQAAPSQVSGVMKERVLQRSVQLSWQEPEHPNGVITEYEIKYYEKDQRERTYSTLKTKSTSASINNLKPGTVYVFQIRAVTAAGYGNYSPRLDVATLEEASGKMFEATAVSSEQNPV", "assay": "ELISA: Fc-His proteins (1 nM) captured on anti-6-His antibody, antibody A 10 µg/mL with human IgG 100 µg/mL, HRP anti-mouse IgG, OD450 as % of mouse EphA4-Fc-His", "protocol": "as §1"}, "[3]": {"target": "T3, monkey EphA4 extracellular region-Fc-His protein (monkey; human)", "T3 construct": "not shown: Fc region of human IgG1; histidine tag", "T3 sequence (chain, as listed by the source)": "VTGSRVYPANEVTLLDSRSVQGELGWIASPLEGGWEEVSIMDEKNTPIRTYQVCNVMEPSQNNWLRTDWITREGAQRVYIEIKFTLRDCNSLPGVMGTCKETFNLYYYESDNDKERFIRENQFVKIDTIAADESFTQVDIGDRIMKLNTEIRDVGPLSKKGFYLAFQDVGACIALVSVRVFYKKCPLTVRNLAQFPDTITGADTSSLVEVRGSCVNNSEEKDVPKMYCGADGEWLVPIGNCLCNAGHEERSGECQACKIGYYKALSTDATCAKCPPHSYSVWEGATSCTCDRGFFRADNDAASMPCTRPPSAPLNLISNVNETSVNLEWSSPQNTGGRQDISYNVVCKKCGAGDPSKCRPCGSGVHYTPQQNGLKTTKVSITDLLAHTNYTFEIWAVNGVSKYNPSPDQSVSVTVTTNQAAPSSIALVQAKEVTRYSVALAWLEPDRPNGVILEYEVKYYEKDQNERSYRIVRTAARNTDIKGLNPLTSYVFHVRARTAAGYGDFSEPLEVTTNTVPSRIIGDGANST", "assay": "ELISA: EphA4 extracellular region-Fc-His (1 nM) captured on anti-human IgG antibody, antibody A titrated with human IgG 100 µg/mL, HRP anti-mouse IgG, OD450 as % of top concentration", "protocol": "(§2) Donkey anti-human IgG antibodies (Jackson ImmunoResearch Laboratories) were coated onto the wells of a 96-well plate (Nunc). After incubating at 4° C. overnight, the wells were blocked at room temperature for 1 hour by 1% Block Ace (DS Pharma Biomedical). After washing 3 times with 0.05% Tween 20/PBS (Thermo […]), mouse, rat, monkey, and human EphA4 extracellular region-Fc-His proteins (final concentration 1 nM) were seeded into the wells, and incubated at room temperature for 1 hour. After washing 3 times, human IgG solution (100 μg/mL, Mitsubishi Pharma Corporation) and antibody A (0, 0.00013, 0.00064, 0.0032, 0.016, 0.08, 0.4, 2, 10, μg/mL) were supplemented to the wells, and incubated at room temperature for 1 hour. Horseradish peroxidase-labeled donkey anti-mouse IgG antibody (Jackson ImmunoResearch Laboratories) was added, and incubated at room temperature for 1 hour. After washing 3 times, TMBZ (3,3′,5,5′-tetramethylbenzidine, Sigma) solution was added to the wells, and upon confirmation of modest coloring, an equal amount of quenching solution (1 N H₂SO₄, Wako Pure Chemicals) was added to the wells, and absorbance at 450 nm was read by a microplate reader (PerkinElmer)."}, "[4]": {"target": "T4, human EphA4 extracellular region-Fc-His protein (human, UniProt P54764 20-547)", "T4 construct": "not shown: Fc region of human IgG1; histidine tag", "T4 sequence (P54764 20-547)": "as the sequence (chain, as listed by the source) above, with S406N counted along it", "assay": "ELISA: EphA4 extracellular region-Fc-His (1 nM) captured on anti-human IgG antibody, antibody A titrated with human IgG 100 µg/mL, HRP anti-mouse IgG, OD450 as % of top concentration", "protocol": "as §2"}, "[5]": {"target": "T5, mouse EphA4 extracellular region-Fc-His protein (mouse; human, UniProt Q03137 20-547)", "T5 construct": "Used as culture supernatant of transfected cells; not shown: Fc region of human IgG1; histidine tag", "T5 sequence (Q03137 20-547)": "as the sequence (chain, as listed by the source) above, with P59A, N121S, V124G, R250Q, S251N, T270S, K378R counted along it", "assay": "ELISA: EphA4 extracellular region-Fc-His (1 nM) captured on anti-human IgG antibody, antibody A titrated with human IgG 100 µg/mL, HRP anti-mouse IgG, OD450 as % of top concentration", "protocol": "as §2"}, "[6]": {"target": "T6, rat EphA4 extracellular region-Fc-His protein (rat; human, UniProt D3ZZK3 20-547)", "T6 construct": "range 20-547; also called rat EphA4 extracellular region-Pc-His protein; not shown: Fc region of human IgG1; histidine tag", "assay": "ELISA: EphA4 extracellular region-Fc-His (1 nM) captured on anti-human IgG antibody, antibody A titrated with human IgG 100 µg/mL, HRP anti-mouse IgG, OD450 as % of top concentration", "protocol": "as §2"}}}
{"binder": "B1", "values": [{"measurement": "binding result", "setting": "[1]", "result": "no binding (tested: 10 µg/mL)"}, {"measurement": "binding result", "setting": "[2]", "result": "no binding (tested: 10 µg/mL)"}, {"measurement": "EC50 (read off the curve)", "setting": "[3]", "result": "~100", "unit": "pM"}, {"measurement": "EC50 (read off the curve)", "setting": "[4]", "result": "~100", "unit": "pM"}, {"measurement": "EC50 (read off the curve)", "setting": "[5]", "result": "~100", "unit": "pM"}, {"measurement": "EC50 (read off the curve)", "setting": "[6]", "result": "~100", "unit": "pM"}]}
